The record followed here is publication PMC6613369.

Substrate in this data set: CO[C@@H]1O[C@H](CO)[C@H](O)[C@@H](O)[C@H]1O
In words: purified protein. The settings on record: oxidation, 2.0 mM NAD+, 50 mM HEPES/K+, pH 8.0, 30 °C. The class given is biochemical, Escherichia coli.

B1: YcjQ (Escherichia coli K-12) (protein)
chain: MKKLVATAPRVAALVEYEDRAILANEVKIRVRFGAPKHGTEVVDFRAASPFIDEDFNGEWQMFTPRPADAPRGIEFGKFQLGNMVVGDIIECGSDVTDYAVGDSVCGYGPLSETVIINAVNNYKLRKMPQGSSWKNAVCYDPAQFAMSGVRDANVRVGDFVVVVGLGAIGQIAIQLAKRAGASVVIGVDPIAHRCDIARRHGADFCLNPIGTDVGKEIKTLTGKQGADVIIETSGYADALQSALRGLAYGGTISYVAFAKPFAEGFNLGREAHFNNAKIVFSRACSEPNPDYPRWSRKRIEETCWELLMNGYLNCEDLIDPVVTFANSPESYMQYVDQHPEQSIKMGVTF
B1: the Michaelis constant (Km) is 12.5 ± 1.5 mM, the catalytic constant (kcat) stood at 0.35 ± 0.03 s⁻¹ and the catalytic efficiency (kcat/Km) came out at 28 ± 3 M⁻¹ s⁻¹.
